According to the supplement of paper PMC7877785:
± gives the uncertainty stated by the source.

Test: self-splicing fitness, log relative to wild type (ln ratio); higher = more splicing; Tetrahymena group I intron in knt gene, E. coli kanamycin selection, DiMSum; sequences stand for … in CUCUCU…GGAGGGAAAAGUUAUCAGGCAUGCACCUGGUAGCUAGUCUUUAAACCAAUAGAUUGCAUCGGUUUAAAAGGCAAGACCGUCAAAUUGCGGGAAAGGGGUCAACAGCCGUUCAGUACCAAGUCUCAGGGGAAACUUUGAGAUGGCCUUGCAAAGGGUAUGGUAAUAAGCUGACGGACAUGGUCCUAACCACGCAGCCAAGUCCUAAGUCAACAGAUCUUCUGUUGAUAUGGAUGCAGUUCACAGACUAAAUGUCGGUCGGGGAAGAUGUAUUCUUCUCAUAAGAUAUAGUCGGACCUCUCCUUAAUGGGAGCUAGCGGAUGAAGUGAUGCAACACUGGAGCCGCUGGGAACUAAUUUGUAUGCGAAAGUAUAUUGAUUAGUUUUGGAGUACUCGUGGUCG
Method in brief: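 Library with all eight P1ex-region intron nucleotides randomised, intron inside the knt kanamycin-resistance gene on pET-22b(+), in E. coli BL21(DE3). Cells grew overnight at 37°C or 30°C on LB agar with or without 25 μg/mL kanamycin (plus 100 μg/mL carbenicillin, 50 μM IPTG, 0.2% rhamnose), in six replicate transformations. Pooled colonies were amplicon-sequenced on Illumina HiSeq 2500. DiMSum fitness is the error-weighted combination of wild-type-normalised replicate fold changes, kanamycin versus none.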

Row | Sequence | self-splicing fitness (ln) (30 °C) | self-splicing fitness (ln) (37 °C)
1 | AGCUAGCAAUAUUACGCUUA | -1.8 ± 0.19 | -2.01 ± 0.19
2 | AGCUAGCAAUAUUACGGAAA | -3.11 ± 0.25 | -0.395 ± 0.16
3 | AGCUAGCAAUAUUACGGAAG | -2.35 ± 0.086 | -1.34 ± 0.11
4 | AGCUAGCAAUAUUACGGAUG | -2.3 ± 0.082 | -0.891 ± 0.095
5 | AGCUAGCAAUAUUACGGCAC | -1.75 ± 0.14 | -0.45 ± 0.16
6 | AGCUAGCAAUAUUACGGCGU | 0.111 ± 0.11 | -0.724 ± 0.13
7 | AGCUAGCAAUAUUACGGUGC | -2.43 ± 0.17 | -2.03 ± 0.22
8 | AGCUAGCAAUAUUACGGUUC | -3.44 ± 0.28 | -0.512 ± 0.17
9 | AGCUAGCAAUAUUACGUAAG | -2.91 ± 0.12 | -1.71 ± 0.14
10 | AGCUAGCAAUAUUACGUACC | -0.329 ± 0.19 | -0.483 ± 0.25
11 | AGCUAGCAAUAUUACGUAGA | -4.65 ± 0.32 | -1.15 ± 0.14
12 | AGCUAGCAAUAUUACGUCUA | -1.49 ± 0.11 | -0.745 ± 0.13
13 | AGCUAGCAAUAUUACGUUAG | -3.14 ± 0.22 | -2.56 ± 0.22
14 | AGGAAGCAAUAUUACGAACA | -1.85 ± 0.14 | -0.21 ± 0.2
15 | AGGAAGCAAUAUUACGAAGU | -2.15 ± 0.24 | -1.82 ± 0.33
16 | AGGAAGCAAUAUUACGAGUG | -2.62 ± 0.13 | -1.8 ± 0.14
17 | AGGAAGCAAUAUUACGAUCC | -0.54 ± 0.16 | -0.331 ± 0.17
18 | AGGAAGCAAUAUUACGAUGU | -1.51 ± 0.087 | -0.634 ± 0.1
19 | AGGAAGCAAUAUUACGCGGU | -4.18 ± 0.39 | -1.31 ± 0.2
20 | AGGAAGCAAUAUUACGGAAC | -3.47 ± 0.26 | -2.96 ± 0.31
21 | AGGAAGCAAUAUUACGGAUC | -1.75 ± 0.16 | -1.02 ± 0.22
22 | AGGAAGCAAUAUUACGGAUG | -3.64 ± 0.2 | -2.37 ± 0.22
23 | AGGAAGCAAUAUUACGGCUU | -3.74 ± 0.34 | -1.32 ± 0.17
24 | AGGAAGCAAUAUUACGGUUG | -3.3 ± 0.17 | -2.23 ± 0.16
25 | AGGAAGCAAUAUUACGUAAA | -2.59 ± 0.18 | -1.88 ± 0.18

Row | Sequence | self-splicing fitness (ln) (30 °C) | self-splicing fitness (ln) (37 °C)
26 | AGGAAGCAAUAUUACGUCCU | -3.89 ± 0.16 | -2.04 ± 0.15
27 | AGGAAGCAAUAUUACGUCGA | -1.4 ± 0.16 | -0.922 ± 0.16
28 | AGGAAGCAAUAUUACGUCGU | -2.6 ± 0.14 | -0.803 ± 0.12
29 | AGGAAGCAAUAUUACGUCUG | -0.767 ± 0.058 | -0.387 ± 0.073
30 | AGGAAGCAAUAUUACGUGAU | -3.24 ± 0.13 | -2.57 ± 0.18
31 | AGGAAGCAAUAUUACGUGUG | -2.29 ± 0.077 | -1.85 ± 0.095
32 | AGGAAGCAAUAUUACGUUGG | -3.22 ± 0.3 | -2.33 ± 0.17
33 | AGGAAGCAAUAUUACGUUUA | -2.27 ± 0.12 | -1.8 ± 0.14
34 | AGGCAGCAAUAUUACGAAGC | -4.02 ± 0.42 | -2.73 ± 0.33
35 | AGGCAGCAAUAUUACGACAA | -1.26 ± 0.14 | -0.976 ± 0.13
36 | AGGCAGCAAUAUUACGACGA | -0.555 ± 0.12 | -0.00249 ± 0.14
37 | AGGCAGCAAUAUUACGAGAC | -1.96 ± 0.13 | -2.65 ± 0.22
38 | AGGCAGCAAUAUUACGAGUU | -1.69 ± 0.11 | -0.885 ± 0.1
39 | AGGCAGCAAUAUUACGAUAU | -1.27 ± 0.069 | -0.399 ± 0.091
40 | AGGCAGCAAUAUUACGAUCA | -0.829 ± 0.13 | -0.234 ± 0.15
41 | AGGCAGCAAUAUUACGAUUU | -0.23 ± 0.085 | -0.332 ± 0.1
42 | AGGCAGCAAUAUUACGCAUA | -0.866 ± 0.081 | -1.07 ± 0.093
43 | AGGCAGCAAUAUUACGCAUU | -2.24 ± 0.13 | -0.577 ± 0.1
44 | AGGCAGCAAUAUUACGCCGA | -1.28 ± 0.35 | -1.97 ± 0.22
45 | AGGCAGCAAUAUUACGCCGC | -2.8 ± 0.18 | -2.66 ± 0.29
46 | AGGCAGCAAUAUUACGCCUG | -1.78 ± 0.14 | -0.748 ± 0.14
47 | AGGCAGCAAUAUUACGCGGU | -3.61 ± 0.19 | -2.98 ± 0.17
48 | AGGCAGCAAUAUUACGCUGG | -3.73 ± 0.22 | -1.2 ± 0.17
49 | AGGCAGCAAUAUUACGGACU | -0.344 ± 0.079 | 0.146 ± 0.093
50 | AGGCAGCAAUAUUACGGCGG | -1.62 ± 0.094 | -1.11 ± 0.13

Row | Sequence | self-splicing fitness (ln) (30 °C) | self-splicing fitness (ln) (37 °C)
51 | AGGCAGCAAUAUUACGGCGU | -0.172 ± 0.063 | -0.0953 ± 0.079
52 | AGGCAGCAAUAUUACGGGUA | -2.35 ± 0.15 | -1.05 ± 0.11
53 | AGGCAGCAAUAUUACGGUAG | -3.33 ± 0.25 | -2.66 ± 0.29
54 | AGGCAGCAAUAUUACGGUCG | -0.147 ± 0.079 | -0.266 ± 0.1
55 | AGGCAGCAAUAUUACGUAAC | -2.03 ± 0.12 | -0.934 ± 0.14
56 | AGGCAGCAAUAUUACGUAGU | -3.18 ± 0.12 | -1.75 ± 0.11
57 | AGGCAGCAAUAUUACGUGUU | -1.85 ± 0.063 | -1.38 ± 0.088
58 | AGGCAGCAAUAUUACGUUCC | -0.801 ± 0.12 | -0.27 ± 0.16
59 | AGGCAGCAAUAUUACGUUUC | -2.17 ± 0.095 | -1.75 ± 0.15
60 | AGGGAGCAAUAUUACGACUC | -1.2 ± 0.48 | -1.92 ± 0.48
61 | AGGGAGCAAUAUUACGAUGU | -1.22 ± 0.098 | -2.13 ± 0.19
62 | AGGGAGCAAUAUUACGCCAC | -2.47 ± 0.49 | –
63 | AGGGAGCAAUAUUACGCGAU | -2.89 ± 0.29 | -1.84 ± 0.47
64 | AGGGAGCAAUAUUACGCGGG | -1.93 ± 0.2 | –
65 | AGGGAGCAAUAUUACGCGUG | -2.4 ± 0.15 | -2.35 ± 0.23
66 | AGGGAGCAAUAUUACGCUUG | -1.95 ± 0.27 | –
67 | AGGGAGCAAUAUUACGCUUU | -2.49 ± 0.45 | -2.48 ± 0.5
68 | AGGGAGCAAUAUUACGGAAG | -3.61 ± 0.4 | -1.02 ± 0.33
69 | AGGGAGCAAUAUUACGGAUA | -3.15 ± 0.31 | –
70 | AGGGAGCAAUAUUACGGCCG | -1.81 ± 0.16 | -1.96 ± 0.16
71 | AGGGAGCAAUAUUACGGGGU | -3.27 ± 0.36 | -3.01 ± 0.31
72 | AGGGAGCAAUAUUACGGUGA | -1.8 ± 0.24 | -1.66 ± 0.26
73 | AGGGAGCAAUAUUACGGUGG | -3.72 ± 0.27 | -3.79 ± 0.36
74 | AGGGAGCAAUAUUACGGUUG | -2.87 ± 0.19 | -2.76 ± 0.36
75 | AGGGAGCAAUAUUACGUAAU | – | -2.05 ± 0.26

Row | Sequence | self-splicing fitness (ln) (30 °C) | self-splicing fitness (ln) (37 °C)
76 | AGGGAGCAAUAUUACGUGUA | -3.24 ± 0.35 | -3.06 ± 0.31
77 | AGGGAGCAAUAUUACGUUGC | – | -1.37 ± 0.31
78 | AGGUAGCAAUAUUACGACUG | -0.0476 ± 0.015 | -0.0252 ± 0.034
79 | AGGUAGCAAUAUUACGAGAA | -2.95 ± 0.05 | -2.09 ± 0.047
80 | AGGUAGCAAUAUUACGAUCU | -0.913 ± 0.016 | -0.426 ± 0.034
81 | AGGUAGCAAUAUUACGCAGA | -2.681 ± 0.023 | -1.59 ± 0.034
82 | AGGUAGCAAUAUUACGCAUC | -3.221 ± 0.027 | -1.72 ± 0.038
83 | AGGUAGCAAUAUUACGCCAA | -1.19 ± 0.02 | -0.512 ± 0.035
84 | AGGUAGCAAUAUUACGCCAG | -1.22 ± 0.02 | -0.873 ± 0.037
85 | AGGUAGCAAUAUUACGCCGC | -3.58 ± 0.053 | -2.77 ± 0.067
86 | AGGUAGCAAUAUUACGCCGG | -1.09 ± 0.017 | -0.556 ± 0.034
87 | AGGUAGCAAUAUUACGCGAU | -3.466 ± 0.03 | -2.24 ± 0.039
88 | AGGUAGCAAUAUUACGCGCA | -0.305 ± 0.016 | 0.00281 ± 0.034
89 | AGGUAGCAAUAUUACGCGCU | -1.13 ± 0.017 | -0.72 ± 0.036
90 | AGGUAGCAAUAUUACGCGGC | -4.05 ± 0.044 | -2.93 ± 0.048
91 | AGGUAGCAAUAUUACGGAAA | -2.92 ± 0.033 | -1.96 ± 0.039
92 | AGGUAGCAAUAUUACGGACC | -0.613 ± 0.019 | -0.424 ± 0.037
93 | AGGUAGCAAUAUUACGGAUC | -1.721 ± 0.017 | -0.787 ± 0.034
94 | AGGUAGCAAUAUUACGGCAG | -1.25 ± 0.015 | -0.539 ± 0.033
95 | AGGUAGCAAUAUUACGGCGA | -0.281 ± 0.015 | -0.0476 ± 0.033
96 | AGGUAGCAAUAUUACGGGAC | -3.462 ± 0.028 | -2.15 ± 0.039
97 | AGGUAGCAAUAUUACGGUGU | -2.356 ± 0.015 | -1.01 ± 0.033
